From the supplement of paper PMC6757056
± gives the standard deviation of the averaged measurements.

B1: library; a variant is named by its letters at N, in order (parent)
chain: GCUGUCACCGGUGUAUUACCCUAGUGGUCGACCGGUCUGAUGAGUCUNNNNNNAGACGAAACAGC

Legend:
hypoxanthine [1] = variants of: B1; experiment: normalized RNA/DNA level with ligand (relative to sTRSVctl = 100) (log10 (% of sTRSVctl)); ligand: hypoxanthine (xanthine aptamer); higher = less ribozyme self-cleavage, higher mRNA level; details: ligand concentration (+) RNA-Seq: 5 mM, HEK293T, reporter: mCherry (pCS4076), ligand present: yes
Procedure, shortened: (§1)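 Total RNA, extracted with EDTA 72 h after HEK293T cells were transfected with 4 µg per 6-well well of reporter-linked ribozyme switch library plasmids, was reverse-transcribed, amplified, barcoded and sequenced. Ligand, if used, was added 1 h before transfection. RNA level was derived from RNA reads divided by DNA reads and normalized to a spiked-in non-cleaving sequence or to the top sequences. This was multiplied by 100 and log10-transformed, with the top set of 25 sequences and a ≥100 DNA read minimum.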

hypoxanthine [2] = variants of: B1; experiment: normalized RNA/DNA level without ligand (relative to sTRSVctl = 100) (log10 (% of sTRSVctl)); ligand: hypoxanthine (xanthine aptamer); higher = less ribozyme self-cleavage, higher mRNA level; details: HEK293T, reporter: mCherry (pCS4076), ligand present: no
Procedure, shortened: as §1

Variant | normalized RNA/DNA level with ligand (log10) (hypoxanthine [1]) | normalized RNA/DNA level without ligand (log10) (hypoxanthine [2])
GCUGUCACCGGUGUAUUACCCUAGUGGUCGACCGGUCUGAUGAGUCUUUUCCCAGACGAAACAGC [UUUCCC] | 1.99 ± 0.024 | 1.96 ± 0.039
GCUGUCACCGGUGUAUUACCCUAGUGGUCGACCGGUCUGAUGAGUCUUUGCUGAGACGAAACAGC [UUGCUG] | 2.009 ± 0.012 | 1.94 ± 0.028
GCUGUCACCGGUGUAUUACCCUAGUGGUCGACCGGUCUGAUGAGUCUCUACGCAGACGAAACAGC [CUACGC] | 1.961 ± 0.011 | 1.913 ± 0.007
GCUGUCACCGGUGUAUUACCCUAGUGGUCGACCGGUCUGAUGAGUCUUUCUACAGACGAAACAGC [UUCUAC] | 1.87 ± 0.041 | 1.89 ± 0.085
GCUGUCACCGGUGUAUUACCCUAGUGGUCGACCGGUCUGAUGAGUCUGUCUAUAGACGAAACAGC [GUCUAU] | 1.94 ± 0.059 | 1.82 ± 0.026
GCUGUCACCGGUGUAUUACCCUAGUGGUCGACCGGUCUGAUGAGUCUAGGGUGAGACGAAACAGC [AGGGUG] | 1.886 ± 0.012 | 1.54 ± 0.09
GCUGUCACCGGUGUAUUACCCUAGUGGUCGACCGGUCUGAUGAGUCUCGCAGAAGACGAAACAGC [CGCAGA] | 1.9 ± 0.029 | 1.81 ± 0.082
GCUGUCACCGGUGUAUUACCCUAGUGGUCGACCGGUCUGAUGAGUCUUUCCAUAGACGAAACAGC [UUCCAU] | 1.97 ± 0.074 | 1.882 ± 0.0027
GCUGUCACCGGUGUAUUACCCUAGUGGUCGACCGGUCUGAUGAGUCUGGUCCCAGACGAAACAGC [GGUCCC] | 1.92 ± 0.05 | 1.902 ± 0.0045
GCUGUCACCGGUGUAUUACCCUAGUGGUCGACCGGUCUGAUGAGUCUGGCAGGAGACGAAACAGC [GGCAGG] | 1.874 ± 0.0049 | 1.496 ± 0.0048
GCUGUCACCGGUGUAUUACCCUAGUGGUCGACCGGUCUGAUGAGUCUGGUUGAAGACGAAACAGC [GGUUGA] | 1.94 ± 0.046 | 1.64 ± 0.021
GCUGUCACCGGUGUAUUACCCUAGUGGUCGACCGGUCUGAUGAGUCUUAAAUCAGACGAAACAGC [UAAAUC] | 1.93 ± 0.044 | 1.97 ± 0.028
GCUGUCACCGGUGUAUUACCCUAGUGGUCGACCGGUCUGAUGAGUCUAUGUUAAGACGAAACAGC [AUGUUA] | 1.92 ± 0.026 | 1.761 ± 0.011
GCUGUCACCGGUGUAUUACCCUAGUGGUCGACCGGUCUGAUGAGUCUCAGGGAAGACGAAACAGC [CAGGGA] | 1.95 ± 0.04 | 1.781 ± 0.014
GCUGUCACCGGUGUAUUACCCUAGUGGUCGACCGGUCUGAUGAGUCUAAGGCCAGACGAAACAGC [AAGGCC] | 1.96 ± 0.066 | 1.9104 ± 0.0016
GCUGUCACCGGUGUAUUACCCUAGUGGUCGACCGGUCUGAUGAGUCUGUGUUCAGACGAAACAGC [GUGUUC] | 1.909 ± 0.0089 | 1.84 ± 0.044
GCUGUCACCGGUGUAUUACCCUAGUGGUCGACCGGUCUGAUGAGUCUUGUUCGAGACGAAACAGC [UGUUCG] | 1.94 ± 0.074 | 1.8368 ± 0.00097
GCUGUCACCGGUGUAUUACCCUAGUGGUCGACCGGUCUGAUGAGUCUGGGGCAAGACGAAACAGC [GGGGCA] | 1.941 ± 0.011 | 1.911 ± 0.01
GCUGUCACCGGUGUAUUACCCUAGUGGUCGACCGGUCUGAUGAGUCUUUAUGUAGACGAAACAGC [UUAUGU] | 1.92 ± 0.021 | 1.794 ± 0.01
GCUGUCACCGGUGUAUUACCCUAGUGGUCGACCGGUCUGAUGAGUCUAGUUUUAGACGAAACAGC [AGUUUU] | 1.97 ± 0.077 | 1.947 ± 0.013
GCUGUCACCGGUGUAUUACCCUAGUGGUCGACCGGUCUGAUGAGUCUUGCGACAGACGAAACAGC [UGCGAC] | 1.96 ± 0.0073 | 1.77 ± 0.028
